Key:
[1] = biological target: the molecule itself; experiment: cryo-EM structure; single-particle cryo-EM of the same purified short flagella of S. enterica EM16009; hook-filament junction map at 2.9 Å; model of 13 FlgE, 11 FlgK, 11 FlgL and 14 FliC
[2] = biological target: T1, FliC flagellin (S. enterica) (S. enterica subsp. enterica serovar …, UniProt P06179 1-495); experiment: as above; details: both partners purified
T1 construct: FliC, phase 1 flagellin of Salmonella enterica subsp. enterica serovar Typhimurium LT2; domains D0 to D3; […]; There are 17 copies in the cap model and 14 in the HFJ model; also called filament; source: S. enterica strain EM16009, chromosomal fliC under the inducible PtetA promoter (30 min AnTc); part of purified short flagella
T1 sequence (P06179 whole entry): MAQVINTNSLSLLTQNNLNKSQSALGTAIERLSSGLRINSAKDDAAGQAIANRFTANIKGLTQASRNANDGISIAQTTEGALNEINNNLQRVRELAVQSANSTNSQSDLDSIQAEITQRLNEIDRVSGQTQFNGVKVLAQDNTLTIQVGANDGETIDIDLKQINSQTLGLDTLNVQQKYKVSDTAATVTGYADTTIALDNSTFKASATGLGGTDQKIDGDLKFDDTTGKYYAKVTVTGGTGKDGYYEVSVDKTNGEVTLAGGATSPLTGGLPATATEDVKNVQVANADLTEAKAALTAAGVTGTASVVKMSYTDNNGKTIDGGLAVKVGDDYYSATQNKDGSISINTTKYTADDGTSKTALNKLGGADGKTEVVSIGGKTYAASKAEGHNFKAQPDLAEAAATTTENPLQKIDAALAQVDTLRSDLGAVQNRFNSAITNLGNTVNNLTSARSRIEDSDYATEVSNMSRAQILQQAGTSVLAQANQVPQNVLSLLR

[3] = biological target: the molecule itself; experiment: cryo-EM structure; single-particle cryo-EM of purified short flagella of S. enterica EM16009 (buffer B: 10 mM Tris pH 8, 5 mM EDTA, 0.01% DDM); cap-filament map at 3.7 Å; model of 5 FliD and 17 FliC
[4] = biological target: T1, FliC flagellin (S. enterica); experiment: as above; details: both partners purified
[5] = biological target: the molecule itself; experiment: cryo-EM structure; single-particle cryo-EM of flagellar hook tips on C. jejuni ΔflhG ΔflaAB minicells (no filament); cap-HFJ map at 6.5 Å; model of 11 FlgK, 11 FlgL and 5 FliD fitted as rigid bodies and refined

B1: FlgL hook-filament junction protein (S. enterica) (natural protein)
chain: MRISTQMMYEQNMSGITNSQAEWMKLGEQMSTGKRVTNPSDDPIAASQAVVLSQAQAQNSQYALARTFATQKVSLEESVLSQVTTAIQTAQEKIVYAGNGTLSDDDRASLATDLQGIRDQLMNLANSTDGNGRYIFAGYKTEAAPFDQATGGYHGGEKSVTQQVDSARTMVIGHTGAQIFNSITSNAVPEPDGSDSEKNLFVMLDTAIAALKTPVEGNNVEKEKAAAAIDKTNRGLKNSLNNVLTVRAELGTQLSELSTLDSLGSDRALGQKLQMSNLVDVDWNSVISSYVMQQAALQASYKTFTDMQGMSLFQLNR
notes: FlgL, hook-filament junction protein (distal layer) of Salmonella enterica subsp. enterica serovar Typhimurium LT2; […]; Eleven subunits form the distal layer of the hook-filament junction; also called HFJ; FlgKL; source: endogenous, S. enterica strain EM16009; part of purified short flagella
In the case of B1, the “stoichiometry N” value [1] is reported as 11 subunits and the binding result [2] is reported as “binds”.

B2: FlgK hook-filament junction protein (S. enterica) (natural protein)
chain: MSSLINHAMSGLNAAQAALNTVSNNINNYNVAGYTRQTTILAQANSTLGAGGWIGNGVYVSGVQREYDAFITNQLRGAQNQSSGLTTRYEQMSKIDNLLADKSSSLSGSLQSFFTSLQTLVSNAEDPAARQALIGKAEGLVNQFKTTDQYLRDQDKQVNIAIGSSVAQINNYAKQIANLNDQISRMTGVGAGASPNDLLDQRDQLVSELNKIVGVEVSVQDGGTYNLTMANGYTLVQGSTARQLAAVPSSADPTRTTVAYVDEAAGNIEIPEKLLNTGSLGGLLTFRSQDLDQTRNTLGQLALAFADAFNAQHTKGYDADGNKGKDFFSIGSPVVYSNSNNADKTVSLTAKVVDSTKVQATDYKIVFDGTDWQVTRTADNTTFTATKDADGKLEIDGLKVTVGTGAQKNDSFLLKPVSNAIVDMNVKVTNEAEIAMASESKLDPDVDTGDSDNRNGQALLDLQNSNVVGGNKTFNDAYATLVSDVGNKTSTLKTSSTTQANVVKQLYKQQQSVSGVNLDEEYGNLQRYQQYYLANAQVLQTANALFDALLNIR
notes: FlgK, hook-filament junction protein (proximal layer) of Salmonella enterica subsp. enterica serovar Typhimurium LT2; […]; Eleven subunits form the proximal layer of the hook-filament junction; also called HFJ; FlgKL; source: endogenous, S. enterica strain EM16009; part of purified short flagella
With B2 the “stoichiometry N” value [1] was 11 subunits.

B3: FliD filament cap protein (S. enterica) (natural protein)
chain: MASISSLGVGSNLPLDQLLTDLTKNEKGRLTPITKQQSANSAKLTAYGTLKSALEKFQTANTALNKADLFKSTVASSTTEDLKVSTTAGAAAGTYKINVTQLAAAQSLATKTTFATTKEQLGDTSVTSRTIKIEQPGRKEPLEIKLDKGDTSMEAIRDAINDADSGIAASIVKVKENEFQLVLTANSGTDNTMKITVEGDTKLNDLLAYDSTTNTGNMQELVKAENAKLNVNGIDIERQSNTVTDAPQGITLTLTKKVTDATVTVTKDDTKAKEAIKSWVDAYNSLVDTFSSLTKYTAVEPGEEASDKNGALLGDSVVRTIQTGIRAQFANSGSNSAFKTMAEIGITQDGTSGKLKIDDDKLTKVLKDNTAAARELLVGDGKETGITTKIATEVKSYLADDGIIDNAQDNVNATLKSLTKQYLSVSNSIDETVARYKAQFTQLDTMMSKLNNTSSYLTQQFTAMNKS
notes: FliD, flagellar filament cap protein of Salmonella enterica subsp. enterica serovar Typhimurium LT2; domains D0 to D3; […]; Five subunits form the pentameric cap at the distal end of the filament; also called FliD cap; filament cap complex; source: endogenous, S. enterica strain EM16009; part of purified short flagella (DDM lysis, ultracentrifugation)
In the case of B3, the “stoichiometry N” value [3] is reported as 5 subunits and the binding result [4] is reported as “binds”.

B4: FlgL hook-filament junction protein (C. jejuni) (natural protein)
chain: MRITNKLNFTNSVNNSMGGQSALYQISQQLASGLKIQNSYEDASTYIDNTRLEYEIKTLEQVKESTSRAQEMTQNSMKALQDMVKLLEDFKVKVTQAASDSNSQTSREAIAKELERIKESIVQLANTSVNGQYLFAGSQVANKPFDSNGNYYGDKNNINVVTGAGTESPYNIPGWDLFFKADGDYKKQISTNVSFTDNRWDLNKDPDKTKYLTGDSKWQQLIGQGYVKDNSLDADKDFEYDDSKLDFPPTTLYVQGTKPDGTSFKSAVLVKPEDTLEDVMENIGALYGNTPNNKVVEVSMNDSGQIQITDLKQGNNKLDFHAVAFTPQADTKDELKNIIEAANQEGISMNEVTNRVMQAATAAPSNGDITKLNNPVTVTINNQQFTIDLKQTDFIKSKMTDTDGNAANGADYDNVYFEKNGNTVYGNVSQVIKGSNAYATDSTKLSEVMAGDSLNGTTLNLKVNSKGGNSYDVTINLQTSTVSYPDPNNPGQTISFPIMHTNPATGNSGVVTGSNDITYGQINDIIGMFAADKIPTTTIQANNGQINNADYTQIQQLMKDSQATVDVSMDYKGRISVTDKLSSGTNIEISLSDSQSGQFPAPPFTTTSTVQNGPNFSFSANNSLTIDEPNVDIIKDLDSMIDAVLKGNMRADSESENPRNTGMQGALERLDHLADHVSKLNTTMGAYHNTIEGVNTRTSFLSVNVQSIKSNVIDVDYGEAMMNLMQVQLAYQASLKASTTISQLSLLNYM
notes: has a bulky D2 domain; model built from an AlphaFold model; Eleven subunits form the distal layer of the HFJ; also called C. jejuni FlgL; source: endogenous, C. jejuni ΔflhG ΔflaAB minicells, imaged in situ
For B4, the “stoichiometry N” value [5] was 11 subunits.

B5: FlgE hook protein (S. enterica) (natural protein)
chain: MSFSQAVSGLNAAATNLDVIGNNIANSATYGFKSGTASFADMFAGSKVGLGVKVAGITQDFTDGTTTNTGRGLDVAISQNGFFRLVDSNGSVFYSRNGQFKLDENRNLVNMQGMQLTGYPATGTPPTIQQGANPAPITIPNTLMAAKSTTTASMQINLNSTDPVPSKTPFSVSDADSYNKKGTVTVYDSQGNAHDMNVYFVKTKDNEWAVYTHDSSDPAATAPTTASTTLKFNENGILESGGTVNITTGTINGATAATFSLSFLNSMQQNTGANNIVATNQNGYKPGDLVSYQINNDGTVVGNYSNEQEQVLGQIVLANFANNEGLASQGDNVWAATQASGVALLGTAGSGNFGKLTNGALEASNVDLSKELVNMIVAQRNYQSNAQTIKTQDQILNTLVNLR
notes: FlgE, flagellar hook protein of Salmonella enterica subsp. enterica serovar Typhimurium LT2; […]; There are 13 copies in the HFJ model; source: endogenous, S. enterica strain EM16009; part of purified short flagella
B5: binds [1].

B6: FlgK hook-filament junction protein (C. jejuni) (natural protein)
chain: MGIFGTLYTGVTGLKASEVQIATTGNNISNANATFYTRQRVVQTTNGYITTGGVQVGTGTAVESIVRLHDEYSYYKLKGASTQLEYTKYMASTLQEIAQRFPDLQNTGILQDLENYNKAWNDFASNPNENATKIALVKASQTLTESVNNTFATLDKIQKKVNDDIKNTVDEINRIGEEIATINKQIYGQEALPTEHANELRDRRDELELTLSKLVSAVASKNEINQDNRLDTTITDPGHQYNLSIEGFSIVDGINFHPLKLDYDDKNKSYSIYYETPDEKVRDLTAKISGGQLGAQLDLRGRNYSKSEGKYEDGIIQGYMDSLDTFAKTMINETNNLYASSAKSSVTSDYLSGLKGDIPLVNYDRTIQPGSFDIVIYDDKGDKKLTKTITIDVNTTMNDIMRQINANTDDNDNKNSNDDVDDHINASFSYDAKTGDGLFQINAKSGFKVAIEDKGTNFAGAFSIGGFFSGTDASDMKVKDSILNDPSTVRASSNGVDSGNDMANKIIQLQYKKVNFYNEDGTIDNLTMEEYYRKLTGKIASDGENNNVVNSSNETLYNSVYSEYQSKSGVNTNEELAALIQYQSSYGAAAKIVSTVDQMLDTLLGLKS
notes: model built from an AlphaFold model; Eleven subunits form the proximal layer of the HFJ; also called C. jejuni FlgK; source: endogenous, C. jejuni ΔflhG ΔflaAB minicells, imaged in situ
B6 was tested, and the “stoichiometry N” value [5] was 11 subunits.

B7: FliD filament cap protein (C. jejuni) (natural protein)
chain: MAFGSLSSLGFGSGVLTQDTIDKLKEAEQKARIDPYTKKIEENTTKQKDLTEIKTKLLSFQTAVSSLADATVFAKRKVVGSISDNPPASLTVNSGVALQSMNINVTQLAQKDVYQSKGLANDGGFVNAQLNGTADLTFFSNGKEYTVTVDKNTTYRDLADKINEASGGEIVAKIVNTGEKGTPYRLTLTSKETGEDSAISFYAGKKDSNGKYQKDINAEKIFDDLGWGLDVSASIDPDKDKKGYGIKDASLHIQTAQNAEFTLDGIKMFRSSNTVTDLGVGMTLTLNKTGEINFDVQQDFEGVTKAMQDLVDAYNDLVTNLNAATDYNSETGTKGTLQGISEVNSIRSSILADLFDSQVVDGTTEDANGNKVNTKVMLSMQDFGLSLNDAGTLSFDSSKFEQKVKEDPDSTESFFSNITKYEDINHTGEVIKTGSLSKYLNSNGGNTNGLEFKPGDFTIVFNNQTYDLSKNSDGTNFKLTGKTEEELLQNLANHINSKGIEGLKVKVESYNQNNVTGFRLNFSGDGSSDFSIKGDANILKELGLSDVNITSKPIEGKGIFSKLKATLQEMTGKDGSITKYDESLTNDIKSLNTSKDSTQAMIDTRYDTMANQWLQYESILNKLNQQLNTVTNMINAANNSNN
notes: has an additional domain D4; model built from an AlphaFold model; Five subunits form the pentameric cap on the HFJ; also called C. jejuni FliD; FliD cap of C. jejuni; source: endogenous, C. jejuni ΔflhG ΔflaAB minicells, imaged in situ
With B7 the “stoichiometry N” value [5] was 5 subunits.

Source: article PMC12221982, “The structure of the complete extracellular bacterial flagellum reveals the mechanism of flagellin incorporation” (Nature Microbiology, 2025)
